Source: the supplement of paper PMC7877785
± gives the uncertainty stated by the source.

Test: self-splicing fitness, log relative to wild type (ln ratio); higher = more splicing; Tetrahymena group I intron in knt gene, E. coli kanamycin selection, DiMSum; sequences stand for … in CUCUCU…GGAGGGAAAAGUUAUCAGGCAUGCACCUGGUAGCUAGUCUUUAAACCAAUAGAUUGCAUCGGUUUAAAAGGCAAGACCGUCAAAUUGCGGGAAAGGGGUCAACAGCCGUUCAGUACCAAGUCUCAGGGGAAACUUUGAGAUGGCCUUGCAAAGGGUAUGGUAAUAAGCUGACGGACAUGGUCCUAACCACGCAGCCAAGUCCUAAGUCAACAGAUCUUCUGUUGAUAUGGAUGCAGUUCACAGACUAAAUGUCGGUCGGGGAAGAUGUAUUCUUCUCAUAAGAUAUAGUCGGACCUCUCCUUAAUGGGAGCUAGCGGAUGAAGUGAUGCAACACUGGAGCCGCUGGGAACUAAUUUGUAUGCGAAAGUAUAUUGAUUAGUUUUGGAGUACUCGUGGUCG
In short: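 Colonies from six replicate transformations of E. coli BL21(DE3) were pooled and amplicon-sequenced on an Illumina HiSeq 2500. The library placed an intron with all eight P1ex-region nucleotides randomised inside the knt kanamycin-resistance gene on pET-22b(+), and cells grew overnight at 37°C or 30°C on LB agar with or without 25 μg/mL kanamycin (plus 100 μg/mL carbenicillin, 50 μM IPTG, 0.2% rhamnose). Fitness is the DiMSum error-weighted combination of wild-type-normalised replicate fold changes, kanamycin versus none.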

Row | Sequence | self-splicing fitness (ln) (30 °C) | self-splicing fitness (ln) (37 °C)
1 | GCAAAGCAAUAUUACGGAUU | -0.922 ± 0.067 | -0.799 ± 0.1
2 | GCAAAGCAAUAUUACGGCUC | -0.596 ± 0.062 | 0.305 ± 0.081
3 | GCAAAGCAAUAUUACGGGCA | -1.3 ± 0.085 | -0.907 ± 0.079
4 | GCAAAGCAAUAUUACGGGCC | -2.74 ± 0.13 | -2.03 ± 0.21
5 | GCAAAGCAAUAUUACGUACC | -0.781 ± 0.081 | -0.64 ± 0.12
6 | GCAAAGCAAUAUUACGUAUA | -1.65 ± 0.19 | -1.48 ± 0.19
7 | GCAAAGCAAUAUUACGUCAC | -3.96 ± 0.23 | -2.56 ± 0.44
8 | GCAAAGCAAUAUUACGUCGU | -2.22 ± 0.095 | -2.27 ± 0.15
9 | GCAAAGCAAUAUUACGUUUC | -4.41 ± 0.28 | -3.44 ± 0.23
10 | GCACAGCAAUAUUACGAAAU | -1.63 ± 0.099 | -0.818 ± 0.11
11 | GCACAGCAAUAUUACGAAGU | -1.3 ± 0.11 | -0.941 ± 0.14
12 | GCACAGCAAUAUUACGAAUA | -1.42 ± 0.13 | -1.09 ± 0.16
13 | GCACAGCAAUAUUACGAGAU | -1.99 ± 0.088 | -0.678 ± 0.081
14 | GCACAGCAAUAUUACGCCGA | -2.19 ± 0.22 | -1.61 ± 0.17
15 | GCACAGCAAUAUUACGCGUG | -3.87 ± 0.2 | -2.35 ± 0.18
16 | GCACAGCAAUAUUACGCUAU | -1.98 ± 0.08 | -0.752 ± 0.086
17 | GCACAGCAAUAUUACGGAAG | -3.04 ± 0.13 | -2.11 ± 0.13
18 | GCACAGCAAUAUUACGGCCG | -2.48 ± 0.17 | -1.75 ± 0.18
19 | GCACAGCAAUAUUACGGGAC | -1.04 ± 0.068 | -1.35 ± 0.098
20 | GCACAGCAAUAUUACGGGAG | -1.96 ± 0.1 | -1.47 ± 0.12
21 | GCACAGCAAUAUUACGGUUU | -0.633 ± 0.047 | 0.145 ± 0.057
22 | GCACAGCAAUAUUACGUACA | -2.07 ± 0.1 | -0.994 ± 0.1
23 | GCACAGCAAUAUUACGUGCU | -3.6 ± 0.1 | -2.75 ± 0.12
24 | GCAGAGCAAUAUUACGAAGG | -4.31 ± 0.46 | -1.42 ± 0.26

Row | Sequence | self-splicing fitness (ln) (30 °C) | self-splicing fitness (ln) (37 °C)
25 | GCAGAGCAAUAUUACGAUGA | -1.42 ± 0.14 | -1.07 ± 0.12
26 | GCAGAGCAAUAUUACGAUGG | -1.98 ± 0.098 | -1.65 ± 0.12
27 | GCAGAGCAAUAUUACGCCGU | -1.7 ± 0.15 | -2.65 ± 0.41
28 | GCAGAGCAAUAUUACGCGCG | -2.8 ± 0.17 | -1.49 ± 0.14
29 | GCAGAGCAAUAUUACGCGCU | – | -2.13 ± 0.35
30 | GCAGAGCAAUAUUACGCGGG | -3.58 ± 0.39 | -2.24 ± 0.28
31 | GCAGAGCAAUAUUACGCGUU | -1.48 ± 0.11 | -2.09 ± 0.16
32 | GCAGAGCAAUAUUACGGAAC | – | -0.993 ± 0.17
33 | GCAGAGCAAUAUUACGGCUC | -2.69 ± 0.37 | -1.99 ± 0.46
34 | GCAGAGCAAUAUUACGGGUA | -3.16 ± 0.18 | -3.68 ± 0.33
35 | GCAGAGCAAUAUUACGGUUA | -2.95 ± 0.17 | -2.17 ± 0.16
36 | GCAGAGCAAUAUUACGUAAG | -1.79 ± 0.16 | -1.88 ± 0.23
37 | GCAGAGCAAUAUUACGUACA | -2.86 ± 0.28 | -0.806 ± 0.24
38 | GCAGAGCAAUAUUACGUACG | -2.22 ± 0.45 | -1.77 ± 0.35
39 | GCAGAGCAAUAUUACGUACU | -3.98 ± 0.3 | -2.29 ± 0.32
40 | GCAGAGCAAUAUUACGUCAC | -3.67 ± 0.34 | -2.48 ± 0.32
41 | GCAGAGCAAUAUUACGUGAA | -3.15 ± 0.14 | -1.59 ± 0.19
42 | GCAGAGCAAUAUUACGUGAU | -2.24 ± 0.16 | -1.5 ± 0.18
43 | GCAGAGCAAUAUUACGUUAU | -2.65 ± 0.46 | -2.44 ± 0.44
44 | GCAGAGCAAUAUUACGUUGU | -5.06 ± 0.46 | -3.02 ± 0.29
45 | GCAGAGCAAUAUUACGUUUG | -3.98 ± 0.27 | -2.77 ± 0.25
46 | GCAUAGCAAUAUUACGAAAU | -1.98 ± 0.13 | -1.31 ± 0.12
47 | GCAUAGCAAUAUUACGACAG | -3.41 ± 0.26 | -2.71 ± 0.33
48 | GCAUAGCAAUAUUACGACGU | -0.0199 ± 0.12 | 0.152 ± 0.12
